Data reported in US20120321619A1 (Bayer, published 2012).

T1: human C4.4a on transfected A549:hC4.4a cells (human, UniProt O95274 31-326)
T1 sequence: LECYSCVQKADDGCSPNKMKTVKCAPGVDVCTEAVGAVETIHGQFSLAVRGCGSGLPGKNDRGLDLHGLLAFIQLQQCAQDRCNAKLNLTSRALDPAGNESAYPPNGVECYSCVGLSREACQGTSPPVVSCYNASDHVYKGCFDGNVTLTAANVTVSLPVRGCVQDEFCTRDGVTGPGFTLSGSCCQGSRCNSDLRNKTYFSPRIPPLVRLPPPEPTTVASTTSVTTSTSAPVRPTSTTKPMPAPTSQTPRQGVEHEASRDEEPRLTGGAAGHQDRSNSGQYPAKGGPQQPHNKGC

T2: human C4.4a natively expressed on tumor cell lines (human, UniProt O95274 31-326)
T2 construct: whole, on cells; also called NCI H292; NCI H322
T2 sequence (looked up): T1 sequence

T3: recombinant soluble human C4.4a (human, UniProt O95274 31-308)
T3 construct: recombinant, soluble, purified protein; also called hC4.4a; full length C4.4a
T3 sequence: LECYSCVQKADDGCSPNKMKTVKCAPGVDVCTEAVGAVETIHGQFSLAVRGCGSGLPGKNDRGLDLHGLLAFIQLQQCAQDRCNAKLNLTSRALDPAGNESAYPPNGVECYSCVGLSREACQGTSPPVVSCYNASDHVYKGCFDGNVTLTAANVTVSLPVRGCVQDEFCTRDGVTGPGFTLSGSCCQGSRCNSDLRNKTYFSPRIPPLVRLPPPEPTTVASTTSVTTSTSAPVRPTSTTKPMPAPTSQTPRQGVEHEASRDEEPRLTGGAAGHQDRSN

T4: recombinant soluble murine C4.4a (mouse, UniProt Q91YK8 33-343, limits assumed)
T4 construct: also called mouse C4.4a; mC4.4a
T4 sequence (looked up): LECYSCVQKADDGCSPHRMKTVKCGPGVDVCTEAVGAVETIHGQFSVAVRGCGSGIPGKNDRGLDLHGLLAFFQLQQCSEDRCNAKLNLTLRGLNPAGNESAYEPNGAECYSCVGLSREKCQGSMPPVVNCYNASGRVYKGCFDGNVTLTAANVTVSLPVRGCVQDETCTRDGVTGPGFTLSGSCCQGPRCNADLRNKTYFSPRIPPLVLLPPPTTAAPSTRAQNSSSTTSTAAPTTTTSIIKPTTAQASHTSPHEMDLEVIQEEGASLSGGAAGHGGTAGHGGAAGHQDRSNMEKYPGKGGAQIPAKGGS

B1: M31-B01 (antibody, human IgG1, V domains shown)
VH: EVQLLESGGGLVQPGGSLRLSCAASGFTFSNAWMSWVRQAPGKGLEWVSYISSSGSTIYYADSVKGRFTISRDNSKNTLYLQMNSLRAEDTAVYYCAREGLWAFDYWGQGTLVTVTS
VL: QSVLTQPPSASGTPGQRVTISCTGSSSNIGAGYVVHWYQQLPGTAPKLLIYDNNKRPSGVPDRFSGSKSGTSASLAISGLRSEDEADYYCAAWDDRLNGPVFGGGTKLTVLG
notes: tested as human IgG1
B2: M20-D02 S-A (antibody, human IgG1, V domains shown)
VH: EVQLLESGGGLVQPGGSLRLSCAASGFTFSDYQMTWIRQTPGKGLEWVSGVSWNGARTHYADSVKGRFTISRDNSKNTLYLQMNSLRAEDTAVYYCAKGDYLVYSAYYFDSWGQGTLVTVTS
VL: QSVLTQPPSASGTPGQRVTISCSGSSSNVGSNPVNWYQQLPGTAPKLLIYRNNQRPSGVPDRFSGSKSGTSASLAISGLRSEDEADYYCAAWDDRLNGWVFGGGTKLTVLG
notes: tested as human IgG1

Tests used:
[1] = target: T1, human C4.4a on transfected A549:hC4.4a …; assay: cell-based or functional assay
[2] = target: T2, human C4.4a natively expressed on tumor …; assay: FACS titration of IgG1 on NCI H292 cells
Method: FACS titration was performed in a 96 well microtiter plate, in which serial dilutions of the primary antibody in a volume of 50 W of FACS buffer (3% FCS, in PBS) were mixed with 50 μl of a cell suspension consisting of 2×10^5 cells/ml which had been detached with Cell Dissociation Solution (1×) Non-enzymatic (Sigma), and resuspended in FACS buffer. Incubation was performed at 4° C. for 1 hour with agitation. Cells were pelleted, washed with FACS buffer and resuspended in 100 μl/well of Phycoerythrin labeled goat anti human IgG (Dianova) solution in FACS buffer. Incubation and washing was performed as before. Analysis of cell-bound antibodies was done at the respective detection wavelength using the FACS Array device. EC₅₀ values were determined from fluorescence medians of duplicates using Swift 8.0 software.

hC4.4a domain S2-Fc-his6 = target: T5, hC4.4a domain S2-Fc-his6 (human, UniProt O95274 138-223); assay: western blot of purified S2-Fc-6×HisTag fusion
T5 construct: C-terminal human IgG1 Fc-6×HisTag fusion from HEK293 6E cells; also called S2 Fc-6×HisTag; domain S2 of C4.4a
Method: The SDS gel was then blotted to a iblot gel transfer membrane (Invitrogen IB3010-02) using an iBlot device (Invitrogen). The membrane was blocked in DPBS pH 7.4+4% milk powder+0.1% Tween 20 for 16 h at 4° C., followed by three washing steps for 5 min at 20° C. in DPBS pH 7.4+0.1% Tween 20. M31-B01 (5.76 mg/ml) or M20-D02 S-A (3.49 mg/ml) were applied in dilutions of 1/5000 and 1/2000 respectively and incubated for 1.5 h at 20° C., followed by 2× washes in DPBS pH 7.4+0.1% Tween 20. The second antibody (alk. Phosphatase. Conjugate Goat anti human IgG, Fab specific; 109-055-097 Jackson ImmunoResearch) was incubated at a dilution of 1/1000 for 1.5 h at 20° C. Followed by 3 washing steps for 5 min at 20° C. in DPBS pH 7.4+0.1% Tween 20. Staining was performed with Sigma Fast BCIP/NBT/1 tablet in 10 ml water at 20° C. till the bands became visible. Staining reaction was stopped by washing with water.

[3] = target: T3, recombinant soluble human C4.4a; assay: SPR (Biacore T100), IgG1 captured by anti-human Fc, soluble C4.4a injected, 1:1 fit
Method: (§1) Binding affinities of anti C4.4 antibodies were determined by surface plasmon resonance analysis on a Biacore T100 instrument (GE Healthcare Biacore, Inc.). Antibodies were immobilized onto a CM5 sensor chip through an indirect capturing reagent, anti-human IgG Fc. Reagents from the “Human Antibody Capture Kit” (BR-1008-39, GE Healthcare Biacore, Inc.) were used as described by the manufacturer. Approximately 5000 RU monoclonal mouse anti-human IgG (Fc) antibody were immobilized per cell. Anti C4.4 antibodies were injected at a concentration of 5 μg/ml at 10 μl/min for 10 sec to reach a capturing level of approximately 200 to 600 RU. Various concentrations (400 nM, 200 nM, 100 nM, 50 nM, 25 nM, 12.5 nM, 6.25 nM, and 3.12 nM) in HEPES-EP buffer (GE Healthcare Biacore, Inc.) of human or murine C4.4a were injected over immobilized anti C4.4a antibodies at a flow rate of 60 μl/min for 3 minutes and the dissociation was allowed for 10 minutes. Sensograms were generated after in-line reference cell correction followed by buffer sample subtraction. The dissociation equilibrium constant (KD) was calculated based on the ratio of association (kₒₙ) and dissociation rated (koff) constants, obtained by fitting sensograms with a first order 1:1 binding model using Biavaluation Software (version 4.0).

[4] = target: T4, recombinant soluble murine C4.4a; assay: as above
Method: as §1

Binder	internalization t½ [min] into A549:hC4.4a cells (CypHer 5E labeled antibody) [1]	EC50 [2]	binding result (hC4.4a domain S2-Fc-his6)	Kd [3]	Kd [4]
B1	49 min	0.3 nM	no binding	70 nM	130 nM
B2	60 min	1.3 nM	no binding	220 nM	180 nM
